# Publication PMC10707054
# Molecular target: FLAG-PTTG1Δ159
# Experiment: co-IP; TCAM2 cells overexpressing FLAG-PTTG1 or FLAG-PTTG1Δ159; IP with M2 αFLAG antibody overnight at 4 °C, Dynabeads; IP lysis buffer 50 mM Tris-Cl pH 7.5, 150 mM NaCl, 1% Nonidet P-40, 1 mM EDTA; Western blot for endogenous SPTBN1, densitometry
substance,measurement,value
Spectrin-βII-chain (SPTBN1) (from UniProt Q01082 1-2364) (natural protein),binding relative to wild-type PTTG1 (densitometry of the co-IP),30%
